This note sets out measurements from the supplement of paper PMC10567573.

First the molecules themselves.
B1: MATN2 (parent)
chain: VNVPGSFVCQCYSGYALAEDGKRC
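Note: lentivirally expressed fusions sorted by FACS into six bins by GFP to DsRed ratio, PSI derived from sequencing read proportions per bin multiplied by bin number.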

Variants of B1 are the subject of the series. The series is described as follows: protein stability index of a GFP-peptide fusion (GPS, HEK-293T) (PSI 1-6); higher = more stable. To be noted: c terminus: a fixed tail appended.
As for VNVPGSLVCQCYSGYALAEDGKRC, the protein stability index came out at 2.07. Regarding VNVPGSMVCQCYSGYALAEDGKRC, the protein stability index was found to be 2.7. Take VNVPGSPVCQCYSGYALAEDGKRC: the protein stability index turned out to be 3.13. The same measure for VNVPGSSVCQCYSGYALAEDGKRC: 2.62. Take VNVPGSNVCQCYSGYALAEDGKRC: the protein stability index amounted to 1.06. The same measure for VNVPGSRVCQCYSGYALAEDGKRC: 3.21. In the case of VNVPGSWVCQCYSGYALAEDGKRC, the protein stability index was 2.48. The same measure for VNVPGSDVCQCYSGYALAEDGKRC: 2.56.

In the case of VNVPGSKVCQCYSGYALAEDGKRC, the protein stability index turned out to be 2.98.

As to VNVPGSTVCQCYSGYALAEDGKRC, the protein stability index is 2.88. Turning to VNVPGSHVCQCYSGYALAEDGKRC, the protein stability index worked out at 3.02.

Take VNVPGSEVCQCYSGYALAEDGKRC: the protein stability index turned out to be 2.94. The result for VNVPGSVVCQCYSGYALAEDGKRC reads 2.19; that for VNVPGSCVCQCYSGYALAEDGKRC, 2.28; that for VNVPGSQVCQCYSGYALAEDGKRC, 2.14. The result for VNVPGSGVCQCYSGYALAEDGKRC reads 3.34; that for VNVPGSAVCQCYSGYALAEDGKRC, 2.85. The same measure for VNVPGSIVCQCYSGYALAEDGKRC: 1.92. With VNVPGSYVCQCYSGYALAEDGKRC, the protein stability index amounted to 2.01.

In the case of VLVPGSFVCQCYSGYALAEDGKRC, the protein stability index was found to be 2.28.

With VVVPGSFVCQCYSGYALAEDGKRC, the protein stability index came to 1.25. The same measure for VMVPGSFVCQCYSGYALAEDGKRC: 1.71; for VPVPGSFVCQCYSGYALAEDGKRC: 2.75; for VAVPGSFVCQCYSGYALAEDGKRC: 1.9. For the variant VQVPGSFVCQCYSGYALAEDGKRC, the protein stability index is 2.28.

On to VCVPGSFVCQCYSGYALAEDGKRC, for which the protein stability index is 2.12. The result for VKVPGSFVCQCYSGYALAEDGKRC reads 1.38; that for VFVPGSFVCQCYSGYALAEDGKRC, 2.64; that for VDVPGSFVCQCYSGYALAEDGKRC, 2.19. Turning to VEVPGSFVCQCYSGYALAEDGKRC, the protein stability index was found to be 3.38. With VGVPGSFVCQCYSGYALAEDGKRC, the protein stability index stood at 1.89. The same measure for VIVPGSFVCQCYSGYALAEDGKRC: 1.75. The result for VWVPGSFVCQCYSGYALAEDGKRC reads 1.79; that for VSVPGSFVCQCYSGYALAEDGKRC, 1.82. The same measure for VYVPGSFVCQCYSGYALAEDGKRC: 1.41; for VTVPGSFVCQCYSGYALAEDGKRC: 2.35.

Turning to VHVPGSFVCQCYSGYALAEDGKRC, the protein stability index turned out to be 1.97.

For the variant VNMPGSFVCQCYSGYALAEDGKRC, the protein stability index is 2.21. As to VNAPGSFVCQCYSGYALAEDGKRC, the protein stability index came to 1.49. The result for VNCPGSFVCQCYSGYALAEDGKRC reads 1.08; that for VNPPGSFVCQCYSGYALAEDGKRC, 2.08; that for VNNPGSFVCQCYSGYALAEDGKRC, 1.73. The result for VNYPGSFVCQCYSGYALAEDGKRC reads 2.52. The same measure for VNLPGSFVCQCYSGYALAEDGKRC: 2.35; for VNQPGSFVCQCYSGYALAEDGKRC: 2.26. For the variant VNFPGSFVCQCYSGYALAEDGKRC, the protein stability index came out at 1.69.

For VNRPGSFVCQCYSGYALAEDGKRC, the protein stability index was determined as 2.05. The result for VNEPGSFVCQCYSGYALAEDGKRC reads 1.19; that for VNTPGSFVCQCYSGYALAEDGKRC, 2.39. For VNIPGSFVCQCYSGYALAEDGKRC, the protein stability index is 1.23. The result for VNKPGSFVCQCYSGYALAEDGKRC reads 2.82. The result for VNSPGSFVCQCYSGYALAEDGKRC reads 2.16. The same measure for VNDPGSFVCQCYSGYALAEDGKRC: 2.11; for VNHPGSFVCQCYSGYALAEDGKRC: 1.81. Regarding VNVPGSFVCACYSGYALAEDGKRC, the protein stability index amounted to 1.56. The same measure for VNVPGSFVCCCYSGYALAEDGKRC: 1.7; for VNVPGSFVCDCYSGYALAEDGKRC: 2.47; for TNVPGSFVCQCYSGYALAEDGKRC: 2.36.

For DNVPGSFVCQCYSGYALAEDGKRC, the protein stability index was 2.6.

On to RNVPGSFVCQCYSGYALAEDGKRC, for which the protein stability index was determined as 1.37. As for YNVPGSFVCQCYSGYALAEDGKRC, the protein stability index came to 2.85. As for NNVPGSFVCQCYSGYALAEDGKRC, the protein stability index amounted to 2.06.

As for ANVPGSFVCQCYSGYALAEDGKRC, the protein stability index came out at 2.14.

As for QNVPGSFVCQCYSGYALAEDGKRC, the protein stability index worked out at 2.01. The result for SNVPGSFVCQCYSGYALAEDGKRC reads 3.31; that for ENVPGSFVCQCYSGYALAEDGKRC, 2.59; that for PNVPGSFVCQCYSGYALAEDGKRC, 2.86. The result for INVPGSFVCQCYSGYALAEDGKRC reads 2.43; that for KNVPGSFVCQCYSGYALAEDGKRC, 1.92; that for LNVPGSFVCQCYSGYALAEDGKRC, 2.17. The result for WNVPGSFVCQCYSGYALAEDGKRC reads 2.91; that for GNVPGSFVCQCYSGYALAEDGKRC, 2.6; that for HNVPGSFVCQCYSGYALAEDGKRC, 1.96. On to MNVPGSFVCQCYSGYALAEDGKRC, for which the protein stability index turned out to be 1.87. For the variant FNVPGSFVCQCYSGYALAEDGKRC, the protein stability index turned out to be 3.08. The result for CNVPGSFVCQCYSGYALAEDGKRC reads 2.15; that for VNVPGSFSCQCYSGYALAEDGKRC, 3.19; that for VNVPGSFPCQCYSGYALAEDGKRC, 2.28. The same measure for VNVPGSFNCQCYSGYALAEDGKRC: 2.51. The result for VNVPGSFKCQCYSGYALAEDGKRC reads 2.74. Turning to VNVPGSFHCQCYSGYALAEDGKRC, the protein stability index stood at 2.34. The result for VNVPGSFYCQCYSGYALAEDGKRC reads 3.01. The result for VNVPGSFFCQCYSGYALAEDGKRC reads 1.79; that for VNVPGSFGCQCYSGYALAEDGKRC, 1.92. The result for VNVPGSFECQCYSGYALAEDGKRC reads 2.53; that for VNVPGSFDCQCYSGYALAEDGKRC, 3.89. Take VNVPGSFICQCYSGYALAEDGKRC: the protein stability index came out at 2.21.

As for VNVPGSFTCQCYSGYALAEDGKRC, the protein stability index was 1.96. The same measure for VNVPGSFLCQCYSGYALAEDGKRC: 2.35. Turning to VNVPGSFACQCYSGYALAEDGKRC, the protein stability index turned out to be 2.16.

For the variant VNVPGSFCCQCYSGYALAEDGKRC, the protein stability index is 1.27. The same measure for VNVPGSFWCQCYSGYALAEDGKRC: 3.21. The result for VNVPGSFMCQCYSGYALAEDGKRC reads 2.79; that for VNVPGSFQCQCYSGYALAEDGKRC, 2.51.
